Results published in patent US20050244864A1, “Development and use of fluorescent probes of unbound analytes” (priority 2004, published 2005).

Legend:
Format in all cases: binding
[1] = Probe fluorescence ratio response to palmitate:BSA complex, relative to ADIFAB2 (ΔR/ΔRAD2); settings: for DR/DR PA: palmitate (PA), response relative to ADIFAB2
Procedure: (§1) The intensity ratio (“R” value) for a given probe is determined. The ratio is calculated using the following formula: R=Fλ1/Fλ2 wherein, Fλ1, is the measured fluorescence intensities (intensity of sample with probe present minus intensity of sample without probe present) at wavelength 1 and Fλ2 is the measured fluorescence intensities (intensity of sample with probe present minus intensity of sample without probe present) at wavelength 2. Then, for a given probe, ΔR, the difference in R value between the measurement in the presence of the analyte and in the absence of the analyte, is calculated as follows: ΔR=R+analyte−R0 The ΔR value for a given probe is then compared to a reference probe, for example, ADIFAB or ADIFAB2, by ΔR/ΔRreference. This value is an indication of how dissimilar the new probe (derived by mutation of the template) is to the reference. By this method, probes with new and useful characteristics may be identified. Measurements of fluorescence intensities are obtained using standard techniques.
(§2) Mutant probes were screened in 96-well plates by fluorescence response to five fatty acids: arachidonate, linolenate, linoleate, oleate, and palmitate. Each fatty acid was prepared as a complex with BSA by slow addition of 50 mM stocks of fatty acid sodium salts at pH 11 to 600 μM BSA in HEPES buffer. During the formation of complexes, 15 μL aliquots were periodically measured with the reference probe, ADIFAB2, to determine the ΔR value upon excitation at 375 nm and fluorescence emission at 550 and 457 nm using a Fluorolog-3 spectrofluorometer (Jobin Yvon) (Richieri et al, Molecular and Cellular Biochemistry (1999), 192:87-94 & Richieri et al, J. Biol. Chem. (1996), 271:31068-31074). Complexes were prepared such that the final ΔR was approximately 0.4 which correspond to [FFAu] ranging from 100 to 1000 nM depending on FFA type. These complexes buffer or clamp the FFAu levels at fixed values and therefore ensure the accurate comparison of different probes with the same FFAu concentrations. In contrast, addition of FFAu alone (i.e. uncomplexed FFA) introduces considerable uncertainty in comparing different probes because the FFAu level will be affected by binding to the dispensing device, the walls of the multi-well plates and to the probe itself. Thus, the terms “buffer” and “clamp” as used in this particular context herein are taken to mean the ability of a carrier macromolecule to complex with an unbound metabolite so that the unbound metabolite is presented accurately for measurement purposes and is prevented from non-specific binding such as binding to laboratory apparatus.
(§3) Plates were prepared and read in two stages. First, complexes and fatty acid free BSA were diluted to 6 μM BSA in HEPES and added to the 96-well plate at 300 μL per well. A MultiProbe II HT (Perkin Elmer) (an automated liquid handling system) was used to facilitate plate preparation for high throughput screening, but any automated or manual pipetting system will suffice. The background fluorescence was then measured at the same wavelengths as used for ADIFAB2 using a Fluorolog-3 spectrofluorometer with an external Micromax 384 fluorescence plate reader (Jobin Yvon). In the second stage, 30 μL aliquots of the mutant probes were added to multiple wells of the plate, one for each fatty acid and one with fatty acid free BSA only, and the fluorescence intensity at each wavelength was again measured on the plate reader. After subtraction of the background fluorescence, the fluorescence ratio of each well was calculated.
(§4) The fluorescence response was quantitatively compared to ADIFAB2 to search for changes in magnitude and fatty acid profile; for example the response to one fatty acid relative to another. For each probe the ratio differences (AR) between wells with each fatty acid compared to a corresponding well with fatty acid free BSA were recorded. […]

[2] = Probe fluorescence ratio response to oleate:BSA complex, relative to ADIFAB2 (ΔR/ΔRAD2); settings: oleate (OA); response relative to ADIFAB2
Procedure: as §1, §2, §3, §4

[3] = Probe fluorescence ratio response to linoleate:BSA complex, relative to ADIFAB2 (ΔR/ΔRAD2); settings: linoleate (LA); response relative to ADIFAB2
Procedure: as §1, §2, §3, §4

[4] = Probe fluorescence ratio response to linolenate:BSA complex, relative to ADIFAB2 (ΔR/ΔRAD2); settings: linolenate (LNA); response relative to ADIFAB2
Procedure: as §1, §2, §3, §4

[5] = Probe fluorescence ratio response to arachidonate:BSA complex, relative to ADIFAB2 (ΔR/ΔRAD2); settings: arachidonate (AA); response relative to ADIFAB2
Procedure: as §1, §2, §3, §4

Molecule | response to palmitic acid [1] | DR/DR OA [2] | DR/DR LA [3] | DR/DR PA [1] | DR/DR LNA [4] | DR/DR AA [5]
VQQ: probe L72V R106Q R126Q of rI-FABP (protein, UniProt P02693 2-132, looked up, variant L72V R106Q R126Q, fluorescent label, probe L72V R106Q R126Q of rI-FABP) Fatty acid-binding protein, …: AFDGTWKVDRNENYEKFMEKMGINVVKRKLGAHDNLKLTITQEGNKFTVKESSNFRNIDVVFELGVDFAYSVADGTELTGTWTMEGNKLVGKFKRVDNGKELIAVQEISGNELIQTYTYEGVEAKQIFKKE | does not respond to palmitic acid | – | – | – | – | –
40F2, L72A (protein, UniProt P02693 2-132, looked up, variant I40F L72A, acrylodan label) Fatty acid-binding protein, …: AFDGTWKVDRNENYEKFMEKMGINVVKRKLGAHDNLKLTFTQEGNKFTVKESSNFRNIDVVFELGVDFAYSAADGTELTGTWTMEGNKLVGKFKRVDNGKELIAVREISGNELIQTYTYEGVEAKRIFKKE | – | 0.90 | 0.90 | 0.80 | 0.99 | 0.89
47G1, L72A (protein, UniProt P02693 2-132, looked up, variant F47G L72A, acrylodan label) Fatty acid-binding protein, …: AFDGTWKVDRNENYEKFMEKMGINVVKRKLGAHDNLKLTITQEGNKGTVKESSNFRNIDVVFELGVDFAYSAADGTELTGTWTMEGNKLVGKFKRVDNGKELIAVREISGNELIQTYTYEGVEAKRIFKKE | – | 0.59 | 0.66 | 0.32 | 0.63 | 0.51
11W1, L72A (protein, UniProt P02693 2-132, looked up, variant N11W L72A, acrylodan label) Fatty acid-binding protein, …: AFDGTWKVDRWENYEKFMEKMGINVVKRKLGAHDNLKLTITQEGNKFTVKESSNFRNIDVVFELGVDFAYSAADGTELTGTWTMEGNKLVGKFKRVDNGKELIAVREISGNELIQTYTYEGVEAKRIFKKE | – | 0.22 | 0.40 | 0.15 | 0.39 | 0.43
47H1, L72A (protein, UniProt P02693 2-132, looked up, variant F47H L72A, acrylodan label) Fatty acid-binding protein, …: AFDGTWKVDRNENYEKFMEKMGINVVKRKLGAHDNLKLTITQEGNKHTVKESSNFRNIDVVFELGVDFAYSAADGTELTGTWTMEGNKLVGKFKRVDNGKELIAVREISGNELIQTYTYEGVEAKRIFKKE | – | 0.67 | 0.74 | 0.43 | 0.70 | 0.63
11Q1, L72A (protein, UniProt P02693 2-132, looked up, variant N11Q L72A, acrylodan label) Fatty acid-binding protein, …: AFDGTWKVDRQENYEKFMEKMGINVVKRKLGAHDNLKLTITQEGNKFTVKESSNFRNIDVVFELGVDFAYSAADGTELTGTWTMEGNKLVGKFKRVDNGKELIAVREISGNELIQTYTYEGVEAKRIFKKE | – | 1.32 | 1.37 | 1.19 | 1.43 | 1.33
14Y, 72A wt (protein, UniProt P02693 2-132, looked up, variant L72A, acrylodan label) Fatty acid-binding protein, …: AFDGTWKVDRNENYEKFMEKMGINVVKRKLGAHDNLKLTITQEGNKFTVKESSNFRNIDVVFELGVDFAYSAADGTELTGTWTMEGNKLVGKFKRVDNGKELIAVREISGNELIQTYTYEGVEAKRIFKKE | – | 2.22 | 1.23 | 1.07 | 1.29 | 1.29
47M2, L72A (protein, UniProt P02693 2-132, looked up, variant F47M L72A, acrylodan label) Fatty acid-binding protein, …: AFDGTWKVDRNENYEKFMEKMGINVVKRKLGAHDNLKLTITQEGNKMTVKESSNFRNIDVVFELGVDFAYSAADGTELTGTWTMEGNKLVGKFKRVDNGKELIAVREISGNELIQTYTYEGVEAKRIFKKE | – | 0.95 | 0.99 | 0.83 | 0.97 | 1.00
40V1, L72A (protein, UniProt P02693 2-132, looked up, variant I40V L72A, acrylodan label) Fatty acid-binding protein, …: AFDGTWKVDRNENYEKFMEKMGINVVKRKLGAHDNLKLTVTQEGNKFTVKESSNFRNIDVVFELGVDFAYSAADGTELTGTWTMEGNKLVGKFKRVDNGKELIAVREISGNELIQTYTYEGVEAKRIFKKE | – | 1.21 | 1.24 | 0.91 | 1.28 | 1.20
11S5, L72A (protein, UniProt P02693 2-132, looked up, variant N11S L72A, acrylodan label) Fatty acid-binding protein, …: AFDGTWKVDRSENYEKFMEKMGINVVKRKLGAHDNLKLTITQEGNKFTVKESSNFRNIDVVFELGVDFAYSAADGTELTGTWTMEGNKLVGKFKRVDNGKELIAVREISGNELIQTYTYEGVEAKRIFKKE | – | 0.29 | 0.36 | 0.35 | 0.37 | 0.33
11D1, L72A (protein, UniProt P02693 2-132, looked up, variant N11D L72A, acrylodan label) Fatty acid-binding protein, …: AFDGTWKVDRDENYEKFMEKMGINVVKRKLGAHDNLKLTITQEGNKFTVKESSNFRNIDVVFELGVDFAYSAADGTELTGTWTMEGNKLVGKFKRVDNGKELIAVREISGNELIQTYTYEGVEAKRIFKKE | – | 0.92 | 0.91 | 0.83 | 0.86 | 0.82
47C3, L72A (protein, UniProt P02693 2-132, looked up, variant F47C L72A, acrylodan label) Fatty acid-binding protein, …: AFDGTWKVDRNENYEKFMEKMGINVVKRKLGAHDNLKLTITQEGNKCTVKESSNFRNIDVVFELGVDFAYSAADGTELTGTWTMEGNKLVGKFKRVDNGKELIAVREISGNELIQTYTYEGVEAKRIFKKE | – | 0.35 | 0.37 | 0.23 | 0.35 | 0.32
11I1, L72A (protein, UniProt P02693 2-132, looked up, variant N11I L72A, acrylodan label) Fatty acid-binding protein, …: AFDGTWKVDRIENYEKFMEKMGINVVKRKLGAHDNLKLTITQEGNKFTVKESSNFRNIDVVFELGVDFAYSAADGTELTGTWTMEGNKLVGKFKRVDNGKELIAVREISGNELIQTYTYEGVEAKRIFKKE | – | 0.39 | 0.55 | 1.19 | 0.51 | 0.58
11F1, L72A (protein, UniProt P02693 2-132, looked up, variant N11F L72A, acrylodan label) Fatty acid-binding protein, …: AFDGTWKVDRFENYEKFMEKMGINVVKRKLGAHDNLKLTITQEGNKFTVKESSNFRNIDVVFELGVDFAYSAADGTELTGTWTMEGNKLVGKFKRVDNGKELIAVREISGNELIQTYTYEGVEAKRIFKKE | – | 0.20 | 0.28 | 0.18 | 0.29 | 0.42
